According to article PMC8298264, “Function of cofactor Akirin2 in the regulation of gene expression in model human neutrophil-like HL60 cells” (Bioscience Reports, 2021):

B1: sp¦P04083¦ANXA1_HUMAN (protein, UniProt P04083 2-346, looked up)
Annexin A1: AMVSEFLKQAWFIENEEQEYVQTVKSSKGGPGSAVSPYPTFNPSSDVAALHKAIMVKGVDEATIIDILTKRNNAQRQQIKAAYLQETGKPLDETLKKALTGHLEEVVLALLKTPAQFDADELRAAMKGLGTDEDTLIEILASRTNKEIRDINRVYREELKRDLAKDITSDTSGDFRNALLSLAKGDRSEDFGVNEDLADSDARALYEAGERRKGTDVNVFNTILTTRSYPQLRRVFQKYTKYSKHDMNKVLDLELKGDIEKCLTAIVKCATSKPAFFAEKLHQAMKGVGTRHKALIRIMVSRSEIDMNDIKAFYQKMYGISLCQAILDETKGDYEKILVALCGGN
B2: sp¦P52789¦HXK2_HUMAN (protein, UniProt P52789 1-917, looked up)
Hexokinase-2: MIASHLLAYFFTELNHDQVQKVDQYLYHMRLSDETLLEISKRFRKEMEKGLGATTHPTAAVKMLPTFVRSTPDGTEHGEFLALDLGGTNFRVLWVKVTDNGLQKVEMENQIYAIPEDIMRGSGTQLFDHIAECLANFMDKLQIKDKKLPLGFTFSFPCHQTKLDESFLVSWTKGFKSSGVEGRDVVALIRKAIQRRGDFDIDIVAVVNDTVGTMMTCGYDDHNCEIGLIVGTGSNACYMEEMRHIDMVEGDEGRMCINMEWGAFGDDGSLNDIRTEFDQEIDMGSLNPGKQLFEKMISGMYMGELVRLILVKMAKEELLFGGKLSPELLNTGRFETKDISDIEGEKDGIRKAREVLMRLGLDPTQEDCVATHRICQIVSTRSASLCAATLAAVLQRIKENKGEERLRSTIGVDGSVYKKHPHFAKRLHKTVRRLVPGCDVRFLRSEDGSGKGAAMVTAVAYRLADQHRARQKTLEHLQLSHDQLLEVKRRMKVEMERGLSKETHASAPVKMLPTYVCATPDGTEKGDFLALDLGGTNFRVLLVRVRNGKWGGVEMHNKIYAIPQEVMHGTGDELFDHIVQCIADFLEYMGMKGVSLPLGFTFSFPCQQNSLDESILLKWTKGFKASGCEGEDVVTLLKEAIHRREEFDLDVVAVVNDTVGTMMTCGFEDPHCEVGLIVGTGSNACYMEEMRNVELVEGEEGRMCVNMEWGAFGDNGCLDDFRTEFDVAVDELSLNPGKQRFEKMISGMYLGEIVRNILIDFTKRGLLFRGRISERLKTRGIFETKFLSQIESDCLALLQVRAILQHLGLESTCDDSIIVKEVCTVVARRAAQLCGAGMAAVVDRIRENRGLDALKVTVGVDGTLYKLHPHFAKVMHETVKDLAPKCDVSFLQSEDGSGKGAALITAVACRIREAGQR
B3: sp¦P09429¦HMGB1_HUMAN (protein, UniProt P09429 1-215, looked up)
High mobility group protein B1: MGKGDPKKPRGKMSSYAFFVQTCREEHKKKHPDASVNFSEFSKKCSERWKTMSAKEKGKFEDMAKADKARYEREMKTYIPPKGETKKKFKDPNAPKRPPSAFFLFCSEYRPKIKGEHPGLSIGDVAKKLGEMWNNTAADDKQPYEKKAAKLKEKYEKDIAAYRAKGKPDAAKKGVVKAEKSKKKKEEEEDEEDEEDEEEEEDEEDEDEEEDDDDE
B4: sp¦Q9UHD1¦CHRD1_HUMAN (protein, UniProt Q9UHD1 2-332, looked up)
Cysteine and histidine-rich …: ALLCYNRGCGQRFDPETNSDDACTYHPGVPVFHDALKGWSCCKRRTTDFSDFLSIVGCTKGRHNSEKPPEPVKPEVKTTEKKELCELKPKFQEHIIQAPKPVEAIKRPSPDEPMTNLELKISASLKQALDKLKLSSGNEENKKEEDNDEIKIGTSCKNGGCSKTYQGLESLEEVCVYHSGVPIFHEGMKYWSCCRRKTSDFNTFLAQEGCTKGKHMWTKKDAGKKVVPCRHDWHQTGGEVTISVYAKNSLPELSRVEANSTLLNVHIVFEGEKEFDQNVKLWGVIDVKRSYVTMTATKIEITMRKAEPMQWASLELPAAKKQEKQKDATTD
B5: sp¦Q9GZU8¦PIP30_HUMAN (protein, UniProt Q9GZU8 1-254, looked up)
PSME3-interacting protein: MDGGDDGNLIIKKRFVSEAELDERRKRRQEEWEKVRKPEDPEECPEEVYDPRSLYERLQEQKDRKQQEYEEQFKFKNMVRGLDEDETNFLDEVSRQQELIEKQRREEELKELKEYRNNLKKVGISQENKKEVEKKLTVKPIETKNKFSQAKLLAGAVKHKSSESGNSVKRLKPDPEPDDKNQEPSSCKSLGNTSLSGPSIHCPSAAVCIGILPGLGAYSGSSDSESSSDSEGTINATGKIVSSIFRTNTFLEAP
B6: sp¦P23921¦RIR1_HUMAN (protein, UniProt P23921 1-792, looked up)
Ribonucleoside-diphosphate …: MHVIKRDGRQERVMFDKITSRIQKLCYGLNMDFVDPAQITMKVIQGLYSGVTTVELDTLAAETAATLTTKHPDYAILAARIAVSNLHKETKKVFSDVMEDLYNYINPHNGKHSPMVAKSTLDIVLANKDRLNSAIIYDRDFSYNYFGFKTLERSYLLKINGKVAERPQHMLMRVSVGIHKEDIDAAIETYNLLSERWFTHASPTLFNAGTNRPQLSSCFLLSMKDDSIEGIYDTLKQCALISKSAGGIGVAVSCIRATGSYIAGTNGNSNGLVPMLRVYNNTARYVDQGGNKRPGAFAIYLEPWHLDIFEFLDLKKNTGKEEQRARDLFFALWIPDLFMKRVETNQDWSLMCPNECPGLDEVWGEEFEKLYASYEKQGRVRKVVKAQQLWYAIIESQTETGTPYMLYKDSCNRKSNQQNLGTIKCSNLCTEIVEYTSKDEVAVCNLASLALNMYVTSEHTYDFKKLAEVTKVVVRNLNKIIDINYYPVPEACLSNKRHRPIGIGVQGLADAFILMRYPFESAEAQLLNKQIFETIYYGALEASCDLAKEQGPYETYEGSPVSKGILQYDMWNVTPTDLWDWKVLKEKIAKYGIRNSLLIAPMPTASTAQILGNNESIEPYTSNIYTRRVLSGEFQIVNPHLLKDLTERGLWHEEMKNQIIACNGSIQSIPEIPDDLKQLYKTVWEISQKTVLKMAAERGAFIDQSQSLNIHIAEPNYGKLTSMHFYGWKQGLKTGMYYLRTRPAANPIQFTLNKEKLKDKEKVSKEEEEKERNTAAMVCSLENRDECLMCGS
B7: sp¦O75746¦CMC1_HUMAN (protein, UniProt O75746 2-678, looked up)
Electrogenic …: AVKVQTTKRGDPHELRNIFLQYASTEVDGERYMTPEDFVQRYLGLYNDPNSNPKIVQLLAGVADQTKDGLISYQEFLAFESVLCAPDSMFIVAFQLFDKSGNGEVTFENVKEIFGQTIIHHHIPFNWDCEFIRLHFGHNRKKHLNYTEFTQFLQELQLEHARQAFALKDKSKSGMISGLDFSDIMVTIRSHMLTPFVEENLVSAAGGSISHQVSFSYFNAFNSLLNNMELVRKIYSTLAGTRKDVEVTKEEFAQSAIRYGQVTPLEIDILYQLADLYNASGRLTLADIERIAPLAEGALPYNLAELQRQQSPGLGRPIWLQIAESAYRFTLGSVAGAVGATAVYPIDLVKTRMQNQRGSGSVVGELMYKNSFDCFKKVLRYEGFFGLYRGLIPQLIGVAPEKAIKLTVNDFVRDKFTRRDGSVPLPAEVLAGGCAGGSQVIFTNPLEIVKIRLQVAGEITTGPRVSALNVLRDLGIFGLYKGAKACFLRDIPFSAIYFPVYAHCKLLLADENGHVGGLNLLAAGAMAGVPAASLVTPADVIKTRLQVAARAGQTTYSGVIDCFRKILREEGPSAFWKGTAARVFRSSPQFGVTLVTYELLQRWFYIDFGGLKPAGSEPTPKSRIADLPPANPDHIGGYRLATATFAGIENKFGLYLPKFKSPSVAVVQPKAAVAATQ
B8: Alpha-2-macroglobulin (protein, UniProt P01023 24-1474, looked up)
Alpha-2-macroglobulin: SVSGKPQYMVLVPSLLHTETTEKGCVLLSYLNETVTVSASLESVRGNRSLFTDLEAENDVLHCVAFAVPKSSSNEEVMFLTVQVKGPTQEFKKRTTVMVKNEDSLVFVQTDKSIYKPGQTVKFRVVSMDENFHPLNELIPLVYIQDPKGNRIAQWQSFQLEGGLKQFSFPLSSEPFQGSYKVVVQKKSGGRTEHPFTVEEFVLPKFEVQVTVPKIITILEEEMNVSVCGLYTYGKPVPGHVTVSICRKYSDASDCHGEDSQAFCEKFSGQLNSHGCFYQQVKTKVFQLKRKEYEMKLHTEAQIQEEGTVVELTGRQSSEITRTITKLSFVKVDSHFRQGIPFFGQVRLVDGKGVPIPNKVIFIRGNEANYYSNATTDEHGLVQFSINTTNVMGTSLTVRVNYKDRSPCYGYQWVSEEHEEAHHTAYLVFSPSKSFVHLEPMSHELPCGHTQTVQAHYILNGGTLLGLKKLSFYYLIMAKGGIVRTGTHGLLVKQEDMKGHFSISIPVKSDIAPVARLLIYAVLPTGDVIGDSAKYDVENCLANKVDLSFSPSQSLPASHAHLRVTAAPQSVCALRAVDQSVLLMKPDAELSASSVYNLLPEKDLTGFPGPLNDQDNEDCINRHNVYINGITYTPVSSTNEKDMYSFLEDMGLKAFTNSKIRKPKMCPQLQQYEMHGPEGLRVGFYESDVMGRGHARLVHVEEPHTETVRKYFPETWIWDLVVVNSAGVAEVGVTVPDTITEWKAGAFCLSEDAGLGISSTASLRAFQPFFVELTMPYSVIRGEAFTLKATVLNYLPKCIRVSVQLEASPAFLAVPVEKEQAPHCICANGRQTVSWAVTPKSLGNVNFTVSAEALESQELCGTEVPSVPEHGRKDTVIKPLLVEPEGLEKETTFNSLLCPSGGEVSEELSLKLPPNVVEESARASVSVLGDILGSAMQNTQNLLQMPYGCGEQNMVLFAPNIYVLDYLNETQQLTPEIKSKAIGYLNTGYQRQLNYKHYDGSYSTFGERYGRNQGNTWLTAFVLKTFAQARAYIFIDEAHITQALIWLSQRQKDNGCFRSSGSLLNNAIKGGVEDEVTLSAYITIALLEIPLTVTHPVVRNALFCLESAWKTAQEGDHGSHVYTKALLAYAFALAGNQDKRKEVLKSLNEEAVKKDNSVHWERPQKPKAPVGHFYEPQAPSAEVEMTSYVLLAYLTAQPAPTSEDLTSATNIVKWITKQQNAQGGFSSTQDTVVALHALSKYGAATFTRTGKAAQVTIQSSGTFSSKFQVDNNNRLLLQQVSLPELPGEYSMKVTGEGCVYLQTSLKYNILPEKEEFPFALGVQTLPQTCDEPKAHTSFQISLSVSYTGSRSASNMAIVDVKMVSGFIPLKPTVKMLERSNHVSRTEVSSNHVLIYLDKVSNQTLSLFFTVLQDVPVRDLKPAIVKVYDYYETDEFAIAEYNAPCSKDLGNA
B9: sp¦P20340¦RAB6A_HUMAN (protein, UniProt P20340 2-208, looked up)
Ras-related protein Rab-6A: STGGDFGNPLRKFKLVFLGEQSVGKTSLITRFMYDSFDNTYQATIGIDFLSKTMYLEDRTVRLQLWDTAGQERFRSLIPSYIRDSTVAVVVYDITNVNSFQQTTKWIDDVRTERGSDVIIMLVGNKTDLADKRQVSIEEGERKAKELNVMFIETSAKAGYNVKQLFRRVAAALPGMESTQDRSREDMIDIKLEKPQEQPVSEGGCSC

Test system: human HL60 cells
Assay: SWATH-MS proteomics, differential protein representation, akirin2 KO vs WT HL60 cells
Assay type: cell-based
Summary of the method: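 Differential representation compares akirin2 KO with WT HL60 across three biological replicates, 5 µg digest each, acquired by data-independent SWATH on a 120-min gradient. Library built from combined IDA runs searched with Paragon; proteins accepted at 1% FDR, with total-area-sum normalization.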

[1] = SWATH-MS, akirin2 KO vs WT HL60 cells, over-represented in KO
[2] = KO vs WT HL60 cells, sheet "Under-represented in KO"

Row | Molecule | Fold Change [1] | Log (Fold Change) [1] | Fold Change [2] | Log (Fold Change) [2]
1 | B1 | 1.503 | 0.1771 |  | 
2 | B2 | 1.502 | 0.1767 |  | 
3 | B3 | 1.517 | 0.1809 |  | 
4 | B4 | 1.486 | 0.1721 |  | 
5 | B5 | 1.523 | 0.1827 |  | 
6 | B6 | 1.511 | 0.1792 |  | 
7 | B7 |  |  | 0.5201 | -0.2839
8 | B8 | 4.777 | 0.6792 |  | 
9 | B9 |  |  | 0.5176 | -0.286
